# Reference: the nanobody polyreactivity screen of Harvey et al. (2022)
# Assay: yeast display, Sf9 membrane polyspecificity reagent, FACS + sequencing; frameworks hold sequencing errors
# Procedure, shortened: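 Nanobodies came from a synthetic yeast display library in Saccharomyces cerevisiae BJ5465, induced with galactose for 36–48 hours and stained for 1 hour at 4 °C with 10% biotinylated, detergent-solubilized Sf9 membrane reagent. Cells were enriched on streptavidin microbeads and then FACS-sorted, with low and high (top ~1%) gates set on anti-HA fluorescence for expression and streptavidin fluorescence for reagent binding. Each polyreactivity label reflects the gate a clone came from. Genes were amplified by colony PCR, sequenced by MiSeq 2 × 250 and filtered by CDR length.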
row,Sequence,polyreactivity (PSR sort gate)
1,QVQLVESGGGLVQAGGSLRLSCAASGSIFLVNAMGWYRQAPGKERELVAAITYGGDSTYYADSVKGRFTISRDNAKNTVYLQMNSLKPEDTAVYYCAADAWVGWHDEYDYWGQGTQVTVSS,low polyreactivity
2,QVQLVESGGGLVQAGGSLRLSCAASGSIFLVYAMGWYRQAPGKERELVAAISRSGRTYADSVKGRFTISRDNAKNTVYLQMNSLKPEDTAVYYCAAGTKRRFEGDYWGQGTQVTVSS,high polyreactivity
3,QVQLVESGGGLVQAGGSLRLSCAASGSIFLWNAMGWYRQAPGKERELVAAITWRGGRTSYADSVKGRFTISRDNAKNTVYLQMNSLKPEDTAVYYCAKEAHPPWTGQDVFRSYDYWGQGTQVTVSS,low polyreactivity
4,QVQLVESGGGLVQAGGSLRLSCAASGSIFLYNAMGWYRQAPGKERELVADITTTGGSTYYADSVKGRFTISRDNAKNTVYLQMNSLKPEDTAVYYCNVDYWGQGTQVTVSS,low polyreactivity
5,QVQLVESGGGLVQAGGSLRLSCAASGSIFLYYAMGWYRQAPGKERELVAAISGRAGSTYYADSVKGRFTISRDNAKNTVYLQMNSLKPEDTAVYYCAAGYWQGYPGFKYYWGQGTQVTVSS,low polyreactivity
6,QVQLVESGGGLVQAGGSLRLSCAASGSIFLYYTMGWYRQEPGKERELVAAITWSGSSTYYADSVKGRFTISRDNAKNTVYLQMNSLKPEDTAVYYCATRYRYRYWGQGTQVTVSS,high polyreactivity
7,QVQLVESGGGLVQAGGSLRLSCAASGSIFNAYVMGWYRQAPGKERELVAAISRSGGRTYYADSVKGRFTISRDNAKNTVYLQMNSLKPEDTAVYYCAADYGGPYGQLDYWGQGTQVTVSS,high polyreactivity
8,QVQLVESGGGLVQAGGSLRLSCAASGSIFNGYAMGWYRQAPGKERELVADIRSGGSTYYADSVKGRFTISRDNAKYTVYLQMNSLKPEDTAVYYCAADTITDGYDYWGQGTQVTVSS,low polyreactivity
9,QVQLVESGGGLVQAGGSLRLSCAASGSIFNGYAMGWYRQAPGKVRELVAAISWNGGRTYYADSVKGRFTISRDNAKNTVYLQKNSLKPEDTAVYYCNKVSGYDVDYWGQGTQVTVSS,high polyreactivity
10,QVQLVESGGGLVQAGGSLRLSCAASGSIFNHYAMGWYRQAPGKERELVAAISGSGGSTYYADSVKGRFTISRDNAQNTVYLQMYSLKPEDTAVYYCAARILRHWVSAEYYWGQGTQVTVSS,low polyreactivity
11,QVQLVESGGGLVQAGGSLRLSCAASGSIFNHYAMGWYRQAPGKERELVAVIPSGGSTNYADSVKGRFTISRDNAKNTVYLQMNSLKPEDTAVYYCAADTYLSAVDYYGWAHDYWGQGTQVTVSS,low polyreactivity
12,QVQLVESGGGLVQAGGSLRLSCAASGSIFNINAMGWYRQAPGKEREFVAAIDYSDSTYYADSVKGRFTISRDNAKNTVYLQMNSLKPEDTAVYYCAADVWKDGYWGDYWGQGTQVNVSS,high polyreactivity
13,QVQLVESGGGLVQAGGSLRLSCAASGSIFNKYAMGWYRQAPGKERELVAAISVSGTRTYYADSVKGRFTISRDNAKNTVYLQMNSLKPEDTAVYYCAAGGVGAYDYWGQGTQVTVSS,high polyreactivity
14,QVQLVESGGGLVQAGGSLRLSCAASGSIFNPNAMGWYRQAPGKERELLAAIDSGGTTDYADSVKGRFTISRDNAKNTVYLQMNSLKPEVTAVYYCNADRTVTSSSFTDYDYWGQGTQVTVSS,high polyreactivity
15,QVQLVESGGGLVQAGGSLRLSCAASGSIFNPYAMGWYRQAPGKERELVAAISSTGSTYYADSVKGRFTISRDNAKNTVYLQMNSLKPEDTAVYYCAADWYWYWFSTYDYWGQGTQVTVSS,low polyreactivity
16,QVQLVESGGGLVQAGGSLRLSCAASGSIFNQYAMGWYRQAPGKERELVAAISSGSTYYADSVKGRFIISRDNAETTVYLQMYSLKPEDTAVYYCNAYYVNYVSNYESWGQGTQVTVSS,high polyreactivity
17,QVQLVESGGGLVQAGGSLRLSCAASGSIFNRNAMGWYRQAPGKERELVAVISWTGDGTYYADSVKGRFTISRDNAKNTVYLQMNSLKPEDTAVYYCAARWYVQFYHRPVSKRYYWGQGTQVTVSS,high polyreactivity
18,QVQLVESGGGLVQAGGSLRLSCAASGSIFNRYAMGWYRQAPRKERELVAAITAGGSSTYYADSVKGRFTISRDNAKNTVYLQMNSLKPEDTAVYYCNAVWWHPKDYDYWGQGTQVTVSS,low polyreactivity
19,QVQLVESGGGLVQAGGSLRLSCAASGSIFNRYTMGWYRQAPGKETELVAAISRGDTTYYADSVKGRFTISRDNAKNTVYLEMNSLKPEDTAVYYWAKAYDTTLTYNYWGQVTQVTVSS,low polyreactivity
20,QVQLVESGGGLVQAGGSLRLSCAASGSIFNSNAMGWSRQAPGKERELVAVISWSDGSTRYADSVKGRFTISRDNAKNTVYLQMNSLKPEDTAVYYCNADLVYYYRQEVDYWGQGTQVTVSS,low polyreactivity
21,QVQLVESGGGLVQAGGSLRLSCAASGSIFNTYVMGWYRQAPGKERELVAAITYSAGGDTYYADSVKGRFTISRDNAKNTVYLQMNSLKPEDTAVYYCAAEYTYLDAYGSYDYWGQGTQVTVSS,low polyreactivity
22,QVQLVESGGGLVQAGGSLRLSCAASGSIFNWYAMGWYRRAPGKERELVAAISQSGTRTFYADSVKGRFTISRDNAKNTVYLQMNSLKPEDTAVYYCNTVKAGYDGYDRDYWGQGTQVTVSS,high polyreactivity
23,QVQLVESGGGLVQAGGSLRLSCAASGSIFNYNAMGWYRQAPGKERELVAGITTSGGSTYYADSVKGRFTISRDNAKNTVYLQMNSLKPEDTAVYYCAAYDYISSTYFLDDYWGQGTQVTVSS,low polyreactivity
24,QVQLVESGGGLVQAGGSLRLSCAASGSIFNYNMGWYRQAPGKERELVAAITSSGGSTYYADSVKGRFTISRDNAKNTVYLQMNSLKPEDTAVYYCAAPISRSAGWDSYDYWGQGTQVTVSS,low polyreactivity
25,QVQLVESGGGLVQAGGSLRLSCAASGSIFNYYAMGWYRQAAGKERELVAVITSGGSTYYAESVKGRFTISRDNAKYSVYLQMNSLKPEDTAVYFCAADDGTGEASVSSNLYDYWGQGTQVTVSS,low polyreactivity
26,QVQLVESGGGLVQAGGSLRLSCAASGSIFNYYTMGWYRQAPGKERELVAAISYRGGRTYYADSVKGRFTISRDNAKNTVYLQMNSLKPEDTAVYYCNAVTRIYEVDYWGQGTQVTVSS,high polyreactivity
27,QVQLVESGGGLVQAGGSLRLSCAASGSIFNYYTMGWYRQAPGKERELVARITSGDSTYYADSVKGRFTISRDNAKNTVYLQMNSLKPEDTAVYYCNAGLYRRRSTYYRQAYNYWGQGTQVTVSS,high polyreactivity
28,QVQLVESGGGLVQAGGSLRLSCAASGSIFPANAMGWYRQAPGKERELVAGISERGSSTYYAVSVKGRFTISRDNAKNTVYLQMNSLKPEDTAVYYCAADLVGRYWSSTHNWARGDYWGQVTQVTVSS,low polyreactivity
29,QVQLVESGGGLVQAGGSLRLSCAASGSIFPAYDMGWYRQAPGKERELVAAIDRGGSTYYADSVKGRFTISRDNAKNTVYLQMNSLKPEDTAVYYCATGYWNTSVYVRLEKRDYWGQGTQVTVSS,low polyreactivity
30,QVQLVESGGGLVQAGGSLRLSCAASGSIFPDNTMGWYRQAPGKERELVAAIDGRGGTTYYADSVKGRFTISRDNAKNTVYLQMNSLKPEDTAVYYCNAGVWTYWHIEMDYWGQGTQVTVSS,low polyreactivity
